This is an account of results in US20220144966A1 (SORRENTO THERAPEUTICS, published 2022).

Positions count from the first letter of the chain named.

Experiment [1] addresses T1, recombinant cynomolgus CD38/His-tag (Sino Biological, catalog #90050-C08H) (cynomolgus monkey, UniProt Q5VAN0 44-300).
T1 construct: Bought protein; also called cynomolgus CD38 protein; not shown: His-tag
Put plainly: ELISA, His-tagged CD38 captured on Ni-NTA plate, antibody about 1 µg/mL. In general terms: In an ELISA, binding on a coated surface is turned into a signal by an enzyme label.

The target in experiment [2] is T2, recombinant mouse CD38/His-tag (Sino Biological, catalog #50191-M08H) (mouse, UniProt P56528 45-304).
T2 construct: Bought protein; also called murine CD38 protein; not shown: His-tag
T2 sequence: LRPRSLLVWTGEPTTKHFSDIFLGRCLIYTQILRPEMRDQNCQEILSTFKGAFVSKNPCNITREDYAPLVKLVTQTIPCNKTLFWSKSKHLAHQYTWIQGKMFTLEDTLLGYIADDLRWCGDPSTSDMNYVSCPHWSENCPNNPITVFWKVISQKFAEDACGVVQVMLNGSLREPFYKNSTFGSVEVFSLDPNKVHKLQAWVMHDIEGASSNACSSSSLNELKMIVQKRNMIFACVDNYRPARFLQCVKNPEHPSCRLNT
Kind of experiment: ELISA, His-tagged CD38 captured on Ni-NTA plate, HRP anti-human Fc, OD 450 nm.

For experiment [3], the target named is T3, cynomolgus CD38 on cynomolgus monkey T cells (cynomolgus monkey, UniProt Q5VAN0 1-300).
T3 construct: Native CD38 on peripheral blood lymphocytes from cynomolgus monkey blood, co-stained with anti-CD3 FITC; also called cynomolgus T cells
Put plainly: flow cytometry on cynomolgus peripheral blood lymphocytes co-stained with anti-CD3 FITC. In general terms: In flow cytometry, cells or beads pass a laser one at a time.

Experiment [4] deals with human CD38 on cells (Raji, Ramos, RPMI 8226, human T cells) (human, UniProt P28907 1-300). Put plainly: flow cytometry on non-activated or activated human T cells, 10, 1 or 0.1 µg/mL.

B1: parent antibody A2 (antibody, V domains shown)
VH: QVQLVESGGGLVKPGGSLRLSCAASGFTFSDDYMSWIRQAPGKGLEWVASVSNGRPTTYYADSVRGRFTISRDNAKNSLYLQMNSLRAEDTAVYYCAREDWGGEFTDWGRGTLVTVSS
VL: QAGLTQPPSASGTSGQRVTISCSGSSSNIGINFVYWYQHLPGTAPKLLIYKNNQRPSGVPDRFSGSKSGNSASLAISGLRSEDEADYYCAAWDDSLSGYVFGSGTKVTVL
notes: Only variable domains are tied to A2; also called A2-IgG1; anti-CD38-A2 parent antibody
On to B1, for which the binding result is “binds” in experiment [1], “no binding (tested: about 1 µg/mL)” in experiment [2] and “binds” in experiment [3].

B2: variant antibody 3E10 (antibody, V domains shown)
VH: B1 VH
VL: B1 VL with I31F, N32H
notes: it was captured by anti-human Fc in SPR
On to B2, for which the binding result in experiment [4] is given as “binds”.

B3: variant antibody 3G3 (antibody, V domains shown)
VH: B1 VH with D100A, G102S, R110Q
VL: B1 VL
As to B3, the binding result in experiment [3] was “binds”.

B4: variant antibody 3H10m1 (antibody, V domains shown)
VH: B1 VH with D100G, G102S, R110Q
VL: B1 VL with I31F, N32H
With B4, the binding result in experiment [3] is recorded as “binds”.
